This note sets out measurements from US10849966B2, “Methods for treating netosis and neutrophil activation” (TRUSTEES OF BOSTON UNIVERSITY, priority 2017, dated 2020).

Test [1] addresses T1, DEspR on intact human cells (Homo sapiens, UniProt B0L3A2).
T1 construct: endogenous in cells; host or cells: intact human cells / 'DEspR+ human cells'
T1 sequence (B0L3A2 1-85): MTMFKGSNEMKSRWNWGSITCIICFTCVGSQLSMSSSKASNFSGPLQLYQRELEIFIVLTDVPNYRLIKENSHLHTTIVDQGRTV
Kind of test: hu6g8 binding to DEspR on intact human cells. The note with it: done in triplicate. The text has this: FIGS. 17A-17C depict anti-DEspR-mab (hu6g8 mab). FIG. 17A depicts a diagram of DEspR, murine precursor mabs and humanized IgG and IgG4 mabs. Hu6g8 is notated as 6g8g7-hu-IgG4 raised against epitope 2, spanning the putative binding domain.
Described herein is the development, characterization, and validation of a fully humanized anti-DEspR mAb with a S228P hinge-stabilized IgG4/kappa FC region, designated herein as hu-6g8 or […]. The hu-6g8 was designed for high binding affinity to DEspR+ human cells and inhibition of activated neutrophil survival. hu-6g8 is reactive in all species, having identical epitopes in human, primates and rodents, which facilitates preclinical and clinical studies using the therapeutic lead. […] (FIG. 6). Through recombinant DNA technology, hu-6g8 was designed with optimal biophysical properties via: a) avoidance of T-cell epitopes for low immunogenicity—‘deimmunized’, b) optimization of heavy and light chain interactions for stability of variable domains, and c) exclusion of destabilizing post-translational modification sites [deamidation, oxidation, acid-lability, inappropriate N-glycosylation, isomerization and pyroglutamate formation].
Described herein are the advantages of anti-DEspR mAb targeted AECs. DEspR, the dual endothelin1/signal peptide receptor,^9 is a validated target on human activated neutrophils and NETs. […]

Test [2] relates to Panc1-cancer stem cell pancreatic carcinomatosis xenograft. Kind of test: CSC-derived pancreatic carcinomatosis xenograft tumor model in nude rats, comorbidities. The note with it: treatment start 3 weeks after Panc1-CSC injection; vs untreated. The test is classed as in vivo, rat. The text has this: FIG. 39 depicts a representative image of control untreated tumor rat (left panel) and ABTM-468 treated rat (right panel). Control rat was euthanized due to distress, treated rat was euthanized to obtain age- and tumor-duration-matched tumors. The xenograft tumor model was developed from Panc1-cancer stem cells injected into the peritoneal space 3 weeks prior to the start of treatment. T, tumors; GB, gall bladder.

As usually defined, the EC50 is the midpoint of the concentration-response curve.

“And” between values parts separate entries of the source, which are not always exact repeats. Equal entries are not always repeated. Some results are limits rather than exact numbers.

As to “hu-6g8: fully humanized anti-DEspR mAb with a S228P hinge-stabilized IgG4/kappa FC region”, the EC50 in test [1] is < 5 nM and 4.2 nM. In addition, the “cancer comorbidities (gut ischemia, ascites, gut dysfunction)” value in test [2] is “reduced gut ischemia, serous or hemorrhagic ascites, distended gut, and ischemic-hemorrhagic gut (black gut) and gut dysfunction”.
